Laboratory results published in US20250205358A1, “PHOTOACTIVATABLE NANOPARTICLES AND USES THEREOF AS AGENTS FOR IMMUNOTHERAPY COMBINATIONS” (Board of Regents, The University of Texas System, priority 2023, published 2025).

How the values were obtained:
[1] = system: PDAC; conditions: PDAC patients, standard of care; cited from earlier work
[2] = system: PD-L1; assay: Fold increase in PD-L1 expression with mIFN-γ (flow cytometry); type: cell-based, murine; conditions: 40 ng/ml, 24 h
Experimental: Fold increase in PD-L1 expression and binding specificity of iTPALs: Confluent AT84, LLC, MC38, ID8, CT1BA5 and BMFA3 cells were washed in PBS, trypsinized, and collected in their respective media. The cells were counted and diluted to seed 1.5×10^5 cells per well in a 6 well plate (Corning) overnight. The next day, the media was replaced with fresh media containing 40 ng/ml of mIFN-γ and incubated for an additional 24 h. The cells were then trypsinized, dispersed in their respective media and counted using a cell counter (Bio-Rad). Cells were diluted in their respective media to obtain a concentration of 5×10^5 cells/ml. Then, 100 μl of the counted cells were placed in the 1.5 ml microcentrifuge tubes. To calculate the fold increase in PD-L1 expression, 100 μl of 40 µg/ml α-PD-L1 equivalent of α-PD-L1-AF488 were then added to the cells whereas to monitor the binding specificity of iTPALs (17α), 100 μl of 500 nM BPD-PC equivalent of either 100 μl PALs or TPALs (17α) added to the cells and incubated at 37° C. for 30 mins in the dark. The cells were then pelleted by […] for 5 mins at 1000×g, and the supernatants containing free unbound PALs and iTPALs (17α) were discarded. The cells were then resuspended in 300 μl of FACS buffer and transferred into flow cytometry tubes. For each condition, 10,000 cells were analyzed using a BD Fortessa flow cytometry analyzer with a 405 nm laser/710 nm bandpass detector pair for BPD-PC fluorescence and a 488 nm laser/530 nm detector pair for AF488 fluorescence. The data was then analyzed using FlowJo to calculate the median fluorescence of BPD-PC and AF488. The increase in PD-L1 expression after treating the cells with mIFN-γ was calculated as shown in Equation 1 below and the binding specificity of iTPALs (17α) was calculated as shown in Equation 2 below.

FOLFIRINOX
Overall survival [1]: 11.1 months

B1: mIFN-γ: mouse Interferon Gamma Protein (Sino Biological) (protein, UniProt P01580 23-155, looked up)
Interferon gamma: HGTVIESLESLNNYFNSSGIDVEEKSLFLDIWRNWQKDGDMKILQSQIISFYLRLFEVLKDNQAISNNISVIESHLITTFFSNSKAKKDAFMSIAKFEVNNPQVQRQAFNELIRVVHQLLPESSLRKRKRSRC
Increase in PD-L1 expression ([2]; AT84 head and neck cancer cells): 1.8 fold
Increase in PD-L1 expression ([2]; BMFA3 PDAC cells): 2.5 fold
Increase in PD-L1 expression ([2]; CT1BA5 PDAC cells): 1.5 fold
Increase in PD-L1 expression ([2]; ID8 ovarian cancer cells): 2.9 fold
Increase in PD-L1 expression ([2]; LLC lung cancer cells): 1.4 fold
Increase in PD-L1 expression ([2]; MC38 colon cancer cells): 1.8 fold
